Data: US7294701B2, “Antibody fragment capable of modulating multidrug resistance and compositions and kits and methods using same” (Technion Research & Development Foundation Ltd., priority 2003, dated 2007)
“And” between values parts separate entries of the source, which are not always exact repeats. Identical values can stand only once. “Also recorded” adds a separate entry of the source. Like-named read-outs stand apart in the source and are kept apart here.

Columns and labels:
[1] = molecular target: T1, Pgp-derived peptide (SEQ ID NO:1) (Homo sapiens, UniProt P08183); assay: competition binding radio-immunoassay with [125I]-labeled A2 scFv; settings: competition with [125I]-labeled A2 scFv, interpolated, FIG. 1d; read-out: concentration of cold competitor for 50% binding inhibition (affinity constant)
T1 construct: made in house; host or cells: chemical synthesis
Method: In a competition binding radio-immunoassay the purified A2 scFv (100 μg) was first labeled with [^125I] using the Bolton-Hunter reagent. The [^125I]-labeled A2 scFv antibody was added as a tracer (3-5×10^5 cpm/well) to a flexible microtiter plate, which had been pre-coated with BSA-biotin and the target peptide (SEQ ID NO:1), as described above. A non-labeled (i.e., cold) A2 scFv was then added, as a competitor, to the pre-coated plates at increasing concentrations. Plates were incubated for 1 hr at room temperature, then washed and analyzed by gamma counter.

[2] = molecular target: T2, biotinylated Pgp-derived peptide (SEQ ID NO:1) (Homo sapiens, UniProt P08183); assay: saturation ELISA; settings: interpolated, FIG. 1c
T2 construct: made in house; host or cells: chemical synthesis
Source text: The binding properties of A2 scFv were further characterized using a saturation ELISA. In this experiment, a biotinylated Pgp-derived peptide (SEQ ID NO:1) was bound to plates precoated with BSA-biotin and exposed to increasing amounts of A2 scFv.

2780 cells = assay: calcein-AM chromophore efflux assay, drug-sensitive cells; type: cell-based, human; settings: 2780, fluorometer, FIG. 4c
[3] = molecular target: T3, Pgp drug-efflux activity in 2780^ADR cells (Homo sapiens, UniProt P08183); assay: calcein-AM chromophore efflux assay; settings: antibody given before calcein, FIGS. 3c, 3e
[4] = molecular target: T3, Pgp drug-efflux activity in 2780^ADR cells
KB3-1 cells = assay: calcein-AM chromophore efflux assay, drug-sensitive cells; type: cell-based, human; settings: KB3-1, fluorometer, FIG. 4d
[5] = tested on: drug-sensitive carcinoma cells KB3-1; assay: immunofluorescence flow-cytometer analysis of cell binding; set-up: species or system human; settings: KB3-1, A2 scFv 50 μg/ml, FIG. 2c
Method: (§1) In another series of experiments, the reactivity and specificity of A2 scFv to Pgp, expressed on the surface of MDR cells, was evaluated. […] The MDR cell lines and the drug-sensitive cell lines used in these experiments are described in Table 2 below.
(§2) Cells growing on six well tissue culture plates were washed twice followed by incubation with soluble purified A2 scFv (50 μg/ml) for 90 minutes on ice. Detection was with anti-Myc (30 μg/ml) and FITC-labeled anti-mouse IgG (1:1000, Jackson). Detection of fluorescent cells was performed on a FACScalibur (Becton Dickinson).

[6] = tested on: drug-sensitive ovarian carcinoma cells 2780; assay: as above; set-up: species or system human; settings: 2780, A2 scFv 50 μg/ml, FIG. 2a
Method: as §1, §2

[7] = tested on: non-target MRP1 control peptide; assay: ELISA binding specificity, non-target control peptide; settings: FIG. 1b
Method: (§3) The binding specificity of the purified A2 scFv antibody was determined via ELISA. A biotinylated target peptide having the amino acid sequence of SEQ ID NO:1, or a non-target MRP1 control peptide (provided at 10 μg in 100 μl) were each immobilized onto a flexible microtiter plate using BSA-biotin-streptavidin. A purified A2 scFv was then added, at different concentrations, to the peptide-coated plate and was detected with an anti Myc tag-HRP conjugate antibody.

[8] = molecular target: T4, Pgp drug-efflux activity in EMT^R1 cells (Cricetulus griseus, UniProt P21448); assay: calcein-AM chromophore efflux assay; type: cell-based, rodent (CHO); settings: EMT^R1, fluorometer, FIG. 4a
T4 construct: a rodent (CHO) MDR cell line EMT^R1; endogenous in cells; host or cells: EMT^R1 (CHO, parental line A8)

[9] = tested on: drug-sensitive cells 2780; assay: immuno-histochemical staining; type: binding, human; settings: 2780, A2 scFv 0.2 mg/ml, FIG. 2f
Method: (§4) Drug sensitive cells and MDR cells were grown to 50% confluence on glass slides, pre-coated with 4% gelatin in PBS, fixed with 2% formaldehyde in PBS, blocked with 1% BSA in PBS at room temperature, then followed by 90 min incubation with A2 scFv (0.2 mg/ml) in PBS containing 1% BSA (room temperature). The slides were then covered with HRP-labeled anti-Myc-antibody (1:500, in PBS containing 1% BSA) for 1 hr, washes with water, then covered with peroxidase substrate, (AEC) for 2-3 min. Slides were then washed with water and counter staining was performed with hematoxylin.

[10] = tested on: drug-sensitive cells KB3-1; assay: immuno-histochemical staining; type: binding, human; settings: drug-sensitive KB3-1, A2 scFv 0.2 mg/ml, FIG. 2h
Method: as §4

[11] = molecular target: T5, Pgp on MDR epidermoid carcinoma cells KBV-1 (Homo sapiens, UniProt P08183); assay: immunofluorescence flow-cytometer analysis of cell binding; settings: KBV-1, A2 scFv 50 μg/ml, FIG. 2d
T5 construct: MDR and Pgp-overexpressing human carcinoma cells KBV-1; endogenous in cells; host or cells: KBV-1 (KB-V1; drug-selected human epidermoid carcinoma, derived from KB3-1)
Method: as §1, §2

[12] = molecular target: T6, Pgp on MDR ovarian carcinoma cells 2780^ADR (Homo sapiens, UniProt P08183); assay: as above; settings: A2 scFv 50 μg/ml, FIG. 2b
T6 construct: MDR and Pgp-overexpressing ovarian carcinoma cells 2780^ADR; endogenous in cells; host or cells: 2780^ADR (drug-selected human ovarian carcinoma)
Method: as §1, §2

2780^ADR cells = assay: viability of doxorubicin-exposed cells by [3H]-leucine incorporation; type: cell-based, human; settings: A2 scFv 0.2 mg/ml before 5-10 μM doxorubicin
Method: Cells were pre-incubated with A2 scFv at a concentration of 0.2 mg/ml, then exposed to 5-10 μM of doxirubicin and then analyzed for [^3H]Leucine content.

A8 cells = assay: calcein-AM chromophore efflux assay, drug-sensitive cells; type: cell-based, rodent (CHO); settings: A8, fluorometer, FIG. 4e
streptavidin = streptavidin (Streptomyces avidinii, UniProt P22629); assay: ELISA binding specificity, streptavidin; settings: FIG. 1b
Method: as §3

[13] = molecular target: T7, Pgp on MDR carcinoma cells KBV-1 (Homo sapiens, UniProt P08183); assay: immuno-histochemical staining; type: binding; settings: MDR KBV-1, A2 scFv 0.2 mg/ml, FIG. 2g
T7 construct: MDR and Pgp-overexpressing human carcinoma cells KBV-1; endogenous in cells; host or cells: KBV-1 (KB-V1; drug-selected human epidermoid carcinoma, derived from KB3-1)
Method: as §4

[14] = molecular target: T6, Pgp on MDR ovarian carcinoma cells 2780^ADR; assay: immuno-histochemical staining; type: binding; settings: A2 scFv 0.2 mg/ml, FIG. 2e
Method: as §4

T3 sequence (P08183 whole entry): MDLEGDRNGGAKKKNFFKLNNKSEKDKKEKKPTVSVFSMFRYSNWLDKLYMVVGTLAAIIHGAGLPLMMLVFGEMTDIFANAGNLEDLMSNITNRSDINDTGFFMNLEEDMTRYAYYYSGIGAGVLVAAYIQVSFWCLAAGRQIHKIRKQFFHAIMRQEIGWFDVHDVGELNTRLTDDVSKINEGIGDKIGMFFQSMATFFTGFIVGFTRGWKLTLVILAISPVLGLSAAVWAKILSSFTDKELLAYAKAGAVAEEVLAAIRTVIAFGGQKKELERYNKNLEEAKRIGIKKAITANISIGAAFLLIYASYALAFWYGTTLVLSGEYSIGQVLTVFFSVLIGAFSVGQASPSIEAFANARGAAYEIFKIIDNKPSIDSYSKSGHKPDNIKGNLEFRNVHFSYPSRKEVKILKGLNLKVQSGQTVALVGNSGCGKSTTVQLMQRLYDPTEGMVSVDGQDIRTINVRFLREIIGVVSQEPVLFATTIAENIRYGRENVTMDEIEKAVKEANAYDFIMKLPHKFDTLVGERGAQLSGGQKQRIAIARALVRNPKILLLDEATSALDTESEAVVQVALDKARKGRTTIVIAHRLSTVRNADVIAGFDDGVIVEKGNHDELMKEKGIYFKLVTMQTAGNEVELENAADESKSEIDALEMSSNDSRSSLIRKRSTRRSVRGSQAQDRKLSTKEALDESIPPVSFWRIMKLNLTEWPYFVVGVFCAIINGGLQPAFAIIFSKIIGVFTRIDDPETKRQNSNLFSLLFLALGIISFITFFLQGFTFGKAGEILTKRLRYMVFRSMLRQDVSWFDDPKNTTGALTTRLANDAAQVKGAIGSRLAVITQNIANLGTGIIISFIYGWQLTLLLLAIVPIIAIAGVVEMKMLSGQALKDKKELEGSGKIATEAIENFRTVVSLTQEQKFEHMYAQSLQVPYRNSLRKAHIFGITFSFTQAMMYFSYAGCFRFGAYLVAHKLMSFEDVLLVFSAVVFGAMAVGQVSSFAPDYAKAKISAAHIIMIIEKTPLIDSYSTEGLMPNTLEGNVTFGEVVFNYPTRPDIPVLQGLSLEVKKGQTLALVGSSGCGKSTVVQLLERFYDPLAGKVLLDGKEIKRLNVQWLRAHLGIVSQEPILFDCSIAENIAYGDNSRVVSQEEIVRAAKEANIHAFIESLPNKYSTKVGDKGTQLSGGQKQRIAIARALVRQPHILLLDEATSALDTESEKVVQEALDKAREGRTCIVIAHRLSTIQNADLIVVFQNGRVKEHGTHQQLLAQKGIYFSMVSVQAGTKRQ
T6 sequence (P08183 whole entry): as above
T4 sequence (P21448 whole entry): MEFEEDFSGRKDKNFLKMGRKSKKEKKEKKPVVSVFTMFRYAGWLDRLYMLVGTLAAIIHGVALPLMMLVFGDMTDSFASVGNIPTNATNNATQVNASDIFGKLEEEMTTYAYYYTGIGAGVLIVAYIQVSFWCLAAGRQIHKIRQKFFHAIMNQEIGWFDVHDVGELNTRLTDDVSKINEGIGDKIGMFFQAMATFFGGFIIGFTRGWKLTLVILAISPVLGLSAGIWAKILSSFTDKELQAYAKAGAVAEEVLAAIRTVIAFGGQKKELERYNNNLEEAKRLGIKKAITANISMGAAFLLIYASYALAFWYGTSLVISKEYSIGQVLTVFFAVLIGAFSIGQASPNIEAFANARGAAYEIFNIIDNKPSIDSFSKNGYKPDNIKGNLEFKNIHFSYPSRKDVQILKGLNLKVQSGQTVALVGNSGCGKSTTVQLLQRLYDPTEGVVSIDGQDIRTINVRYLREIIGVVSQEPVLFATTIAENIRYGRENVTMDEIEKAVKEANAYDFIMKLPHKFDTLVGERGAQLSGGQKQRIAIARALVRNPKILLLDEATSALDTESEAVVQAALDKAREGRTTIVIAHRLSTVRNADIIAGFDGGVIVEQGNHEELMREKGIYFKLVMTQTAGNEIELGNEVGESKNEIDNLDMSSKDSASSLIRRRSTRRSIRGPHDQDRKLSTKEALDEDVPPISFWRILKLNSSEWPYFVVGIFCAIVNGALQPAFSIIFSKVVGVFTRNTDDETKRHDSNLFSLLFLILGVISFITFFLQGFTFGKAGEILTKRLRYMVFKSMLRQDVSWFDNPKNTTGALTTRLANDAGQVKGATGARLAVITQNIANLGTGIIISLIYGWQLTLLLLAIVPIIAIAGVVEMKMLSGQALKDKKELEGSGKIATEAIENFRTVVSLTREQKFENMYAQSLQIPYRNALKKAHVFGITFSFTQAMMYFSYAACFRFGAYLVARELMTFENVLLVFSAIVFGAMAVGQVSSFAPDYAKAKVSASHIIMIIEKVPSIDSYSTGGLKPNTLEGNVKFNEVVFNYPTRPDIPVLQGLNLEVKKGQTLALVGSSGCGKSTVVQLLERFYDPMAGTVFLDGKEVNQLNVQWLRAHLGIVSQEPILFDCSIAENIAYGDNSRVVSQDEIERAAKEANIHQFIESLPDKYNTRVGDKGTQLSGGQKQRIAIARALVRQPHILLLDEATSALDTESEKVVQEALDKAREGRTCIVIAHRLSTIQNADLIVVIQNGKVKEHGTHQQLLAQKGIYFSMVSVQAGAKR
T5 sequence (P08183 whole entry): as the sequence (P08183 whole entry) above

B1: A2 scFv: novel anti-Pgp single-chain Fv, about 30 kDa, encoded by SEQ ID NO:2, directed to first extracellular loop peptide SEQ ID NO:1 (protein)
chain: QVQLQQSGPDLVKPGASVKISCKASGYSFTGYYMHWVKQSHGKSLEWIGRANPNNGGTSYNQKFKGKAILTVDKSSSTAYMELRSLTSEDSAVYYCARWDGAYWGQGTLVTVSSGGGGSGGGGSGGGGSDVVMTQTPLSLPVSLGDQASISCRSSQSIVHSNGNTYLEWYLQKPGQSPKLLIYKVSNRFSGVPDRFSGSGSGTDFTLKISRVEAEDLGVYYCFQGSHVPFTFGSGTKLELK
modifications: A2 single chain Fv coding sequence
Question: With B1 as the molecule, how does the Kd [1] read?
Answer: The Kd was 130 nM and ~130 nM.

Question: And the Kd ([2]; listed as A2, read-out: concentration required for 50% of maximal binding (affinity constant))?
Answer: Its Kd is about 150 nM.

Question: What about the Kd ([2]; read-out: concentration required for 50% of maximal binding (affinity constant)) of the same molecule?
Answer: The Kd was 150 nM and ~150 nM.

Question: What about the “effect on calcein uptake in drug-sensitive cells” value (2780 cells) of the same molecule?
Answer: Its value is “did not affect the level of calcein accumulation; also recorded: no effect”.

Question: And the “effect on calcein uptake / drug efflux activity” value [3]?
Answer: The value was “substantial increase in fluorescence intensity; also recorded: substantially inhibited drug efflux activity; also recorded: positive dose-response effect”.

Question: What about the IC50 [4] of the same molecule?
Answer: The IC50 was 2600 nM.

Question: And the “concentration of maximal inhibitory activity” value [4]?
Answer: The value was 100 µg/mL.

Question: And the “effect on calcein uptake in drug-sensitive cells” value (KB3-1 cells)?
Answer: Its value is “did not affect the level of calcein accumulation; also recorded: no effect”.

Question: And the “reactivity with cells (flow cytometer)” value [5]?
Answer: Its value is “no reactivity; also recorded: no effect on fluorescent intensity”.

Question: And the “reactivity with cells (flow cytometer)” value [6]?
Answer: Its value is “no reactivity; also recorded: no effect on fluorescent intensity”.

Question: What about the “binding to biotinylated non-target peptide” value [7] of the same molecule?
Answer: The value was “did not react”.

Question: What about the “effect on calcein uptake” value [8] of the same molecule?
Answer: Its value is “substantial increases in calcein accumulation; also recorded: substantially higher levels of fluorescence”.

Question: And the “immuno-histochemical staining of cells” value [9]?
Answer: Its value is “did not stain; also recorded: no antibody-cell reaction”.

Question: What about the “immuno-histochemical staining of cells” value [10] of the same molecule?
Answer: Its value is “did not stain; also recorded: no antibody-cell reaction”.

Question: And the “reactivity with cells (flow cytometer)” value [11]?
Answer: The value was “strong reactivity; also recorded: substantial increase in fluorescent intensity”.

Question: What about the “increase in fluorescent intensity” value [12] of the same molecule?
Answer: The value was 10 fold.

Question: And the “reactivity with cells (flow cytometer)” value [12]?
Answer: Its value is “strong reactivity”.

Question: And the “viability of cells exposed to doxorubicin” value (2780^ADR cells)?
Answer: Its value is “effectively reduced the viability of cells; also recorded: substantial loss of viability of cells”.

Question: What about the “effect on calcein uptake in drug-sensitive cells” value (A8 cells) of the same molecule?
Answer: Its value is “did not affect the level of calcein accumulation; also recorded: no effect”.

Question: And the binding to streptavidin (streptavidin)?
Answer: Its binding to streptavidin is “did not react”.

Question: And the “immuno-histochemical staining of cells” value [13]?
Answer: Its value is “intense in situ staining; also recorded: positive antibody-cell reaction”.

Question: What about the “immuno-histochemical staining of cells” value [14] of the same molecule?
Answer: The value was “intense in situ staining; also recorded: positive antibody-cell reaction”.
